Experimental data reported in patent US20250339531A1, “DUX4 POLYPEPTIDES AND NUCLEIC ACIDS FOR TREATING INFLAMMATORY AND AUTOIMMUNE CONDITIONS” (Fred Hutchinson Cancer Center, priority 2021, published 2025).

Test system: proteins that co-immunoprecipitated with DUX4-CTD constructs expressed in MB135 myoblasts
Assay: LC-MS of proteins co-immunoprecipitated with DUX4-CTD (Table 1) and western validation
Format: binding, human
Set-up: key to 4. mL1dL2 + Dox + IFNG / 4. + IFNG mix / 4. longCTD + Dox + IFNG / 3. + IFNg + Dox longCTD / 3. + Dox longCTD / 3. + IFNG longCTD: peptide-spectrum matches (PSMs) per protein
Conditions: for 4. longCTD + Dox + IFNG: LC-MS counts of the listed protein co-immunoprecipitated with DUX4-CTD bait longCTD, experiment 4, Dox + IFNG; for 3. + IFNg + Dox longCTD / 3. + Dox longCTD: bait longCTD; for 3. + IFNg + Dox longCTD: experiment 3, IFNg + Dox; for SUM of PSMS: sum over all samples; for 3. + Dox longCTD: experiment 3, Dox only
Method in brief: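 Two independent experiments compared uninduced, doxycycline and doxycycline+IFNG MB135iDUX4-CTD (plus MB135iDUX4mL1dL2) myoblasts. Anti-FLAG pulldowns (3 h, 4 °C) were eluted in LDS buffer for western validation or with FLAG peptide for trypsin digestion and Orbitrap LC-MS; hits needed ≥2 PSMs in both experiments, ranked by total PSMs.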

| Molecule | 4. longCTD + Dox + IFNG | 3. + IFNg + Dox longCTD | SUM of PSMS | 3. + Dox longCTD |
| --- | --- | --- | --- | --- |
| O94919 (protein, UniProt O94919 1-500, looked up, full-length) MGTARWLALGSLFALAGLLEGRLVGEEEAGFGECDKFFYAGTPPAGLAADSHVKICQRAEGAERFATLYSTRDRIPVYSAFRAPRPAPGGAEQRWLVEPQIDDPNSNLEEAINEAEAITSVNSLGSKQALNTDYLDSDYQRGQLYPFSLSSDVQVATFTLTNSAPMTQSFQERWYVNLHSLMDRALTPQCGSGEDLYILTGTVPSDYRVKDKVAVPEFVWLAACCAVPGGGWAMGFVKHTRDSDIIEDVMVKDLQKLLPFNPQLFQNNCGETEQDTEKMKKILEVVNQIQDEERMVQSQKSSSPLSSTRSKRSTLLPPEASEGSSSFLGKLMGFIATPFIKLFQLIYYLVVAILKNIVYFLWCVTKQVINGIESCLYRLGSATISYFMAIGEELVSIPWKVLKVVAKVIRALLRILCCLLKAICRVLSIPVRVLVDVATFPVYTMGAIPIVCKDIALGLGGTVSLLFDTAFGTLGGLFQVVFSVCKRIGYKVTFDNSGEL | 2 | 1 | 5 | – |
| Q15233 (protein, UniProt Q15233 1-471, looked up, full-length) MQSNKTFNLEKQNHTPRKHHQHHHQQQHHQQQQQQPPPPPIPANGQQASSQNEGLTIDLKNFRKPGEKTFTQRSRLFVGNLPPDITEEEMRKLFEKYGKAGEVFIHKDKGFGFIRLETRTLAEIAKVELDNMPLRGKQLRVRFACHSASLTVRNLPQYVSNELLEEAFSVFGQVERAVVIVDDRGRPSGKGIVEFSGKPAARKALDRCSEGSFLLTTFPRPVTVEPMDQLDDEEGLPEKLVIKNQQFHKEREQPPRFAQPGSFEYEYAMRWKALIEMEKQQQDQVDRNIKEAREKLEMEMEAARHEHQVMLMRQDLMRRQEELRRMEELHNQEVQKRKQLELRQEEERRRREEEMRRQQEEMMRRQQEGFKGTFPDAREQEIRMGQMAMGGAMGINNRGAMPPAPVPAGTPAPPGPATMMPDGTLGLTPPTTERFGQAATMEGIGAIGGTPPAFNRAAPGAEFAPNKRRRY | – | 8 | 10 | 1 |
| Q63ZY3 (protein, UniProt Q63ZY3 1-851, looked up, full-length) MAQVLHVPAPFPGTPGPASPPAFPAKDPDPPYSVETPYGYRLDLDFLKYVDDIEKGHTLRRVAVQRRPRLSSLPRGPGSWWTSTESLCSNASGDSRHSAYSYCGRGFYPQYGALETRGGFNPRVERTLLDARRRLEDQAATPTGLGSLTPSAAGSTASLVGVGLPPPTPRSSGLSTPVPPSAGHLAHVREQMAGALRKLRQLEEQVKLIPVLQVKLSVLQEEKRQLTVQLKSQKFLGHPTAGRGRSELCLDLPDPPEDPVALETRSVGTWVRERDLGMPDGEAALAAKVAVLETQLKKALQELQAAQARQADPQPQAWPPPDSPVRVDTVRVVEGPREVEVVASTAAGAPAQRAQSLEPYGTGLRALAMPGRPESPPVFRSQEVVETMCPVPAAATSNVHMVKKISITERSCDGAAGLPEVPAESSSSPPGSEVASLTQPEKSTGRVPTQEPTHREPTRQAASQESEEAGGTGGPPAGVRSIMKRKEEVADPTAHRRSLQFVGVNGGYESSSEDSSTAENISDNDSTENEAPEPRERVPSVAEAPQLRPAGTAAAKTSRQECQLSRESQHIPTAEGASGSNTEEEIRMELSPDLISACLALEKYLDNPNALTERELKVAYTTVLQEWLRLACRSDAHPELVRRHLVTFRAMSARLLDYVVNIADSNGNTALHYSVSHANFPVVQQLLDSGVCKVDKQNRAGYSPIMLTALATLKTQDDIETVLQLFRLGNINAKASQAGQTALMLAVSHGRVDVVKALLACEADVNVQDDDGSTALMCACEHGHKEIAGLLLAVPSCDISLTDRDGSTALMVALDAGQSEIASMLYSRMNIKCSFAPMSDDESPTSSSAEE | 4 | 3 | 11 | 3 |
| P29508 (protein, UniProt P29508 1-390, looked up, full-length) MNSLSEANTKFMFDLFQQFRKSKENNIFYSPISITSALGMVLLGAKDNTAQQIKKVLHFDQVTENTTGKAATYHVDRSGNVHHQFQKLLTEFNKSTDAYELKIANKLFGEKTYLFLQEYLDAIKKFYQTSVESVDFANAPEESRKKINSWVESQTNEKIKNLIPEGNIGSNTTLVLVNAIYFKGQWEKKFNKEDTKEEKFWPNKNTYKSIQMMRQYTSFHFASLEDVQAKVLEIPYKGKDLSMIVLLPNEIDGLQKLEEKLTAEKLMEWTSLQNMRETRVDLHLPRFKVEESYDLKDTLRTMGMVDIFNGDADLSGMTGSRGLVLSGVLHKAFVEVTEEGAEAAAATAVVGFGSSPTSTNEEFHCNHPFLFFIRQNKTNSILFYGRFSSP | – | 2 | 4 | – |
| Q8NC51 (protein, UniProt Q8NC51 1-408, looked up, full-length) MPGHLQEGFGCVVTNRFDQLFDDESDPFEVLKAAENKKKEAGGGGVGGPGAKSAAQAAAQTNSNAAGKQLRKESQKDRKNPLPPSVGVVDKKEETQPPVALKKEGIRRVGRRPDQQLQGEGKIIDRRPERRPPRERRFEKPLEEKGEGGEFSVDRPIIDRPIRGRGGLGRGRGGRGRGMGRGDGFDSRGKREFDRHSGSDRSSFSHYSGLKHEDKRGGSGSHNWGTVKDELTESPKYIQKQISYNYSDLDQSNVTEETPEGEEHHPVADTENKENEVEEVKEEGPKEMTLDEWKAIQNKDRAKVEFNIRKPNEGADGQWKKGFVLHKSKSEEAHAEDSVMDHHFRKPANDITSQLEINFGDLGRPGRGGRGGRGGRGRGGRPNRGSRTDKSSASAPDVDDPEAFPALA | 1 | 3 | 6 | 2 |
| P52597 (protein, UniProt P52597 1-415, looked up, full-length) MMLGPEGGEGFVVKLRGLPWSCSVEDVQNFLSDCTIHDGAAGVHFIYTREGRQSGEAFVELGSEDDVKMALKKDRESMGHRYIEVFKSHRTEMDWVLKHSGPNSADSANDGFVRLRGLPFGCTKEEIVQFFSGLEIVPNGITLPVDPEGKITGEAFVQFASQELAEKALGKHKERIGHRYIEVFKSSQEEVRSYSDPPLKFMSVQRPGPYDRPGTARRYIGIVKQAGLERMRPGAYSTGYGGYEEYSGLSDGYGFTTDLFGRDLSYCLSGMYDHRYGDSEFTVQSTTGHCVHMRGLPYKATENDIYNFFSPLNPVRVHIEIGPDGRVTGEADVEFATHEEAVAAMSKDRANMQHRYIELFLNSTTGASNGAYSSQVMQGMGVSAAQATYSGLESQSVSGCYGAGYSGQNSMGGYD | 1 | 4 | 6 | 1 |
| P55209 (protein, UniProt P55209 1-391, looked up, full-length) MADIDNKEQSELDQDLDDVEEVEEEETGEETKLKARQLTVQMMQNPQILAALQERLDGLVETPTGYIESLPRVVKRRVNALKNLQVKCAQIEAKFYEEVHDLERKYAVLYQPLFDKRFEIINAIYEPTEEECEWKPDEEDEISEELKEKAKIEDEKKDEEKEDPKGIPEFWLTVFKNVDLLSDMVQEHDEPILKHLKDIKVKFSDAGQPMSFVLEFHFEPNEYFTNEVLTKTYRMRSEPDDSDPFSFDGPEIMGCTGCQIDWKKGKNVTLKTIKKKQKHKGRGTVRTVTKTVSNDSFFNFFAPPEVPESGDLDDDAEAILAADFEIGHFLRERIIPRSVLYFTGEAIEDDDDDYDEEGEEADEEGEEEGDEENDPDYDPKKDQNPAECKQQ | 3 | 5 | 10 | – |
| Q9UN86 (protein, UniProt Q9UN86 1-482, looked up, full-length) MVMEKPSPLLVGREFVRQYYTLLNKAPEYLHRFYGRNSSYVHGGVDASGKPQEAVYGQNDIHHKVLSLNFSECHTKIRHVDAHATLSDGVVVQVMGLLSNSGQPERKFMQTFVLAPEGSVPNKFYVHNDMFRYEDEVFGDSEPELDEESEDEVEEEQEERQPSPEPVQENANSGYYEAHPVTNGIEEPLEESSHEPEPEPESETKTEELKPQVEEKNLEELEEKSTTPPPAEPVSLPQEPPKAFSWASVTSKNLPPSGTVSSSGIPPHVKAPVSQPRVEAKPEVQSQPPRVREQRPRERPGFPPRGPRPGRGDMEQNDSDNRRIIRYPDSHQLFVGNLPHDIDENELKEFFMSFGNVVELRINTKGVGGKLPNFGFVVFDDSEPVQRILIAKPIMFRGEVRLNVEEKKTRAARERETRGGGDDRRDIRRNDRGPGGPRGIVGGGMMRDRDGRGPPPRGGMAQKLGSGRGTGQMEGRFTGQRR | 1 | 3 | 6 | 1 |
| P26196 (protein, UniProt P26196 1-483, looked up, full-length) MSTARTENPVIMGLSSQNGQLRGPVKPTGGPGGGGTQTQQQMNQLKNTNTINNGTQQQAQSMTTTIKPGDDWKKTLKLPPKDLRIKTSDVTSTKGNEFEDYCLKRELLMGIFEMGWEKPSPIQEESIPIALSGRDILARAKNGTGKSGAYLIPLLERLDLKKDNIQAMVIVPTRELALQVSQICIQVSKHMGGAKVMATTGGTNLRDDIMRLDDTVHVVIATPGRILDLIKKGVAKVDHVQMIVLDEADKLLSQDFVQIMEDIILTLPKNRQILLYSATFPLSVQKFMNSHLQKPYEINLMEELTLKGVTQYYAYVTERQKVHCLNTLFSRLQINQSIIFCNSSQRVELLAKKISQLGYSCFYIHAKMRQEHRNRVFHDFRNGLCRNLVCTDLFTRGIDIQAVNVVINFDFPKLAETYLHRIGRSGRFGHLGLAINLITYDDRFNLKSIEEQLGTEIKPIPSNIDKSLYVAEYHSEPVEDEKP | 1 | 3 | 6 | 2 |
